Among the data in US20260356960 (published 2026) are Kd values, retold here.

The target of one experiment is T1, sST2 recombinant (human).
T1 chain: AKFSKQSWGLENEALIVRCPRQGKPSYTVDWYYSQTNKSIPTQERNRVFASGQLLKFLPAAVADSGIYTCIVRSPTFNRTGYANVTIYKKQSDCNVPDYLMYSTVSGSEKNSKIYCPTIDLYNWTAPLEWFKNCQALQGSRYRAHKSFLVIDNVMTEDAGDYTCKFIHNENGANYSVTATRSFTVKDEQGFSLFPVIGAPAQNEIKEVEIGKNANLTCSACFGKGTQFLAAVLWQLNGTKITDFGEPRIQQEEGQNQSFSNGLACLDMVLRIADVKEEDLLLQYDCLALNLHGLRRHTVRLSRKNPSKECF
In words: ELISA.

In the next experiment the target is T2, SKECF peptide (human, not fully specified).
T2 chain: SKECF
In words: SPR.

Where no end group is shown, it is not given here.

B1: scFv-αsST2 (scFv 96-1) (antibody)
chain: MQVQLQQWGAGLLKPSETLSLTCAVYGGSFSGYYWSWIRQPPGKGLEWIGEINHSGSTNYNPSLKSRVTVSLDTSKNQFSLKLSSVTAADTAVYYCARGRGLVRFDSWGQGTTVTVSSGGGGSGGGGSGGGGSEIVLTQSPGTLSLSPGDRATLSCRASQFVGSSSVAWYQQRPGQAPRLLIYAAVSRASGIPDRFSGGGSGTDFTLTISRLEPEDSAVYYCLQYGSALYTFGQGTKLEIK
modifications: listing feature
Turning to B1, in the experiment with sST2 recombinant, the Kd – broadly, the concentration at which binding is half-saturated – worked out at 23 µM.

B2: scFv-αsST2 (scFv 96-1) (antibody)
chain: B1 chain
In the experiment with SKECF peptide, B2 showed a dissociation constant (Kd) of 1700 nM.
